Assay results taken from patent publication US10383919B1, “Fragments of growth hormone binding protein” (The University of the Sciences, priority 2013, dated 2019).
Where no end group is shown, it is not given here.

Key:
[1] = cited from earlier work
[2] = target: T1, rhGH (Homo sapiens, UniProt P01241); experiment: Equilibrium dialysis of GHBP peptides against rhGH (12-14 kDa MWCO membrane, MICRO-BCA read-out of lower chamber); type: binding; conditions: 1:1 ratio of rhGH:peptide; 0.25 mg/ml hGH stock; starting peptide 11.36 uM; 37° C., 24 hours
T1 construct: purchased Bresagen, Adelaide, Australia
T1 sequence (P01241 27-217): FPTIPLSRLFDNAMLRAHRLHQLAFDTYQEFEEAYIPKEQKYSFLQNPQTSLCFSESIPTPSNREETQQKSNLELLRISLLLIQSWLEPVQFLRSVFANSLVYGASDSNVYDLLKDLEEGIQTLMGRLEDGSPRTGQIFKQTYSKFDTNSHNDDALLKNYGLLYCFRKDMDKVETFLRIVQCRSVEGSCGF
Protocol: Equilibrium Dialysis: High Throughput Equilibrium Dialysis was performed using the 96-well Micro-Equilibrium Dialysis Device HTD (HTDialysis, LLC, CT, USA) according to the supplier's directions. The dialysis membrane was a SPECTRA/POR cellulose ester membrane. We tested a 3.5-5 kDa Molecular Weight Cut-off (MWCO) SPECTRA/POR membrane and a 12-14 kDa Molecular Weight Cut-off (MWCO) SPECTRA/POR membrane for their ability to allow peptide equilibration. Peptides were added to the upper chamber of each well of both a 3.5-5 kDa MWCO and a 12-14 kDa MWCO membrane and incubated at 37° C. with shaking at 200 rpm for 24 hours. Concentration of the peptide in the upper and lower chamber was assayed using MICRO-BCA Assay (Pierce) according to the supplier's directions.
We then confirmed the ability of the 12-14 kDa MWCO membrane to retain the hGH. Lyophilized recombinant hGH (Bresagen, Adelaide, Australia) was dissolved in phosphate-buffered saline (PBS) plus 0.05% sodium azide. One-hundred uL of a 25 mg/mL solution plus 100 uL of PBS were added to the upper chamber of the micro-dialysis device fitted with a 12-14 kDa MWCO membrane and incubated at 37° C. with shaking at 200 rpm for 24 hours. Concentration of hGH in the upper and lower chamber was assayed using MICRO-BCA Assay (Pierce) according to the supplier's directions. […] We used the 12-14 kDa MWCO membrane for our binding assays.
The upper chamber of each well received 100 uL of 0.25 mg/ml hGH and 100 uL of a 22.72 uM peptide solution. The lower chamber of each well received 100 uL of buffer and 100 uL of a 22.72 uM peptide solution. Thus, the starting concentration of peptide in both the upper and lower portion of each well was 11.36 uM. Plates were incubated at 37° C., with shaking at 200 rpm for 24 hours. […] The assay was configured with a 1:2 sample: working reagent ratio and incubated 45° C. for 4 hours and read in a spectrophotometer at 562 nm. Concentrations of peptide in the lower chamber were determined based on the equations generated by the standard curves for each peptide. […]

Substance	half-life in the bloodstream [1]	concentration of peptide in the lower chamber in the presence of rhGH (binding to rhGH) [2]
hGH: Human growth hormone (somatotropin or somatropin), a peptide hormone; recombinant hGH (Bresagen) was used in the binding assays	about fifteen	
S-P-E-R-E-T-F-S (SPERETFS; listed as Homo sapiens) [Peptide 1, hGHBP fragment Serine-40 to Serine-47]		substantially reduced
R-R-N-T-Q-E (RRNTQE; listed as Homo sapiens) [Peptide 3, hGHBP fragment Arginine-70 to Glutamate-76]		substantially reduced
TSIWIPYCIGKCFSVDEIVQPD (TSIWIPYCIGKCFSVDEIVQPD; not fully specified; printed as Thr-Ser-Ile-Trp-Ile-Pro-Tyr-Cys-Ile-Gly-Lys-Cys-Phe-Ser-Val-Asp-Glu-Ile-Val-Gln-Pro-Asp; cysteine pairing not given here; listed as Homo sapiens) [Peptide 7, Peptide 5 & Peptide 6 bridged]		substantially reduced
